± gives the standard error. For some of these results: This sample holds only a part of the variants without activity.
B1: glmS ribozyme (parent)
chain: AUAAAAGCGCCAGAACUACAGAAAUGUAGUUGACGAGGAGGAGGUUUAUCGAAUUUUCGGCGGAUGCCUCCAAA

Assays:
Conditions in all cases: with glucosamine-6-phosphate
glucosamine-6-phosphate [1] = variants of: B1; assay: kcat; higher = faster cleavage; RNA array
Summary of the method: (§1)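 Glucosamine-6-phosphate in HEPES/KCl/Mg(OAc)2 buffer, at 40 μM to 10 mM, was flowed over barcoded ribozyme variants transcribed in situ by E. coli RNA polymerase on sequenced MiSeq chips. Tracking was through a hybridised Cy3 probe at 37 °C. kobs, kcat and KM came from exponential decay fits and weighted Michaelis–Menten fits of normalised per-tile medians.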

glucosamine-6-phosphate [2] = variants of: B1; assay: self-cleavage kobs at 160 uM GlcN6P; higher = faster cleavage; RNA array
Summary of the method: as §1

glucosamine-6-phosphate [3] = variants of: B1; assay: KM; higher = weaker cofactor use; RNA array
Summary of the method: as §1

glucosamine-6-phosphate [4] = variants of: B1; assay: self-cleavage kobs at 40 uM GlcN6P; higher = faster cleavage; RNA array
Summary of the method: as §1

glucosamine-6-phosphate [5] = variants of: B1; assay: self-cleavage kobs at 640 uM GlcN6P; higher = faster cleavage; RNA array
Summary of the method: as §1

glucosamine-6-phosphate [6] = variants of: B1; assay: self-cleavage kobs at 2500 uM GlcN6P; higher = faster cleavage; RNA array
Summary of the method: as §1

glucosamine-6-phosphate [7] = variants of: B1; assay: self-cleavage kobs at 10000 uM GlcN6P; higher = faster cleavage; RNA array
Summary of the method: as §1

Row | Variant | kcat (glucosamine-6-phosphate [1]) [s⁻¹] | self-cleavage kobs at 160 uM GlcN6P (glucosamine-6-phosphate [2]) [s⁻¹] | KM (glucosamine-6-phosphate [3]) [mM] | self-cleavage kobs at 40 uM GlcN6P (glucosamine-6-phosphate [4]) [s⁻¹] | self-cleavage kobs at 640 uM GlcN6P (glucosamine-6-phosphate [5]) [s⁻¹] | self-cleavage kobs at 2500 uM GlcN6P (glucosamine-6-phosphate [6]) [s⁻¹] | self-cleavage kobs at 10000 uM GlcN6P (glucosamine-6-phosphate [7]) [s⁻¹]
1 | C34G G38U | < 1e-05 | < 1e-05 | – | – | – | – | –
2 | A39C A52U | 8.87e-05 ± 2.8e-06 | – | 2.38 ± 0.21 | < 1e-05 | 1.71e-05 ± 7.8e-06 | 4.62e-05 ± 6.1e-06 | 7.13e-05 ± 7.2e-06
3 | G32U G63A | < 1e-05 | – | – | – | < 1e-05 | < 1e-05 | < 1e-05
4 | U31G G41U | 0.000641 ± 0.00019 | 6.71e-05 ± 1.8e-05 | – | – | 0.000154 ± 6.3e-05 | 0.000806 ± 0.00017 | 0.000505 ± 0.0001
5 | A33C C58U | < 1e-05 | < 1e-05 | – | – | – | – | < 1e-05
6 | G35C C68U | < 1e-05 | < 1e-05 | – | < 1e-05 | – | – | –
7 | A39U G60A | 2.79e-05 ± 2e-06 | < 1e-05 | 5.82 ± 1.1 | – | – | – | –
8 | G32A | 0.00528 ± 0.00074 | 0.000185 ± 5.1e-06 | 4.25 ± 0.75 | 5.63e-05 ± 1.2e-06 | 0.00064 ± 1.1e-05 | 0.00219 ± 7.7e-05 | 0.00372 ± 7.6e-05
9 | G32C | 0.000139 ± 1.7e-06 | – | 3.46 ± 0.11 | – | 2.26e-05 ± 1.4e-06 | 5.77e-05 ± 1.3e-06 | 0.000103 ± 1.4e-06
10 | G32U | 0.00158 ± 5.1e-05 | 4.88e-05 ± 1.7e-06 | 5.15 ± 0.24 | 1.52e-05 ± 1.4e-06 | 0.000173 ± 2.7e-06 | 0.000508 ± 1e-05 | 0.00104 ± 1.4e-05
11 | A33C U55C | < 1e-05 | < 1e-05 | – | < 1e-05 | < 1e-05 | – | –
12 | G32U A64U | < 1e-05 | < 1e-05 | – | – | < 1e-05 | – | –
13 | U31G U56G C71A | 0.000443 ± 5.1e-05 | – | 3.05 ± 0.74 | – | – | 0.000191 ± 4.5e-05 | 0.00035 ± 9e-05
14 | A33G G35A G37A C71U | 1.55e-05 ± 4.5e-06 | – | – | – | – | – | –
15 | A36G A64G | 2.02e-05 ± 1.1e-06 | < 1e-05 | – | < 1e-05 | – | – | –
16 | A39C U69C | 0.000195 ± 3.5e-05 | – | – | – | 6.94e-05 ± 1.8e-05 | 0.000211 ± 3.5e-05 | 0.000166 ± 1.9e-05
17 | G32U A52G | 8.92e-05 ± 4.7e-06 | – | 3.49 ± 0.57 | – | – | 3.86e-05 ± 7.8e-06 | 6.6e-05 ± 5.2e-06

Row | Variant | kcat (glucosamine-6-phosphate [1]) [s⁻¹] | self-cleavage kobs at 160 uM GlcN6P (glucosamine-6-phosphate [2]) [s⁻¹] | KM (glucosamine-6-phosphate [3]) [mM] | self-cleavage kobs at 40 uM GlcN6P (glucosamine-6-phosphate [4]) [s⁻¹] | self-cleavage kobs at 640 uM GlcN6P (glucosamine-6-phosphate [5]) [s⁻¹] | self-cleavage kobs at 2500 uM GlcN6P (glucosamine-6-phosphate [6]) [s⁻¹] | self-cleavage kobs at 10000 uM GlcN6P (glucosamine-6-phosphate [7]) [s⁻¹]
18 | G38U U55G | < 1e-05 | < 1e-05 | – | – | – | – | –
19 | G37U C70G | 2.07e-05 ± 8.5e-06 | – | – | – | – | – | –
20 | G37A U46A | 0.000136 ± 4.3e-06 | – | 2.84 ± 0.21 | < 1e-05 | 2.37e-05 ± 7.5e-06 | 6.45e-05 ± 7.8e-06 | 0.000105 ± 1.1e-05
21 | G32U C58A | 0.00151 ± 0.00022 | 6.77e-05 ± 1.3e-05 | 5.03 ± 1 | – | 0.000164 ± 1.4e-05 | 0.000495 ± 4.5e-05 | 0.00102 ± 8.8e-05
22 | G32U C58U | 0.000916 ± 0.0003 | 6.06e-05 ± 1.7e-05 | – | – | 0.000118 ± 1.5e-05 | 0.000245 ± 3e-05 | 0.000655 ± 6.4e-05
23 | A39U U57C | 0.00022 ± 2.2e-05 | – | 9.72 ± 1.5 | – | – | 4.56e-05 ± 8.7e-06 | 0.000111 ± 2.2e-05
24 | G32U U65G | 0.00128 ± 0.00061 | – | – | < 1e-05 | – | 2.49e-05 ± 1.1e-05 | 9.34e-05 ± 1.3e-05
25 | G32U U45G | 0.000699 ± 0.00027 | – | – | – | – | 6.97e-05 ± 1.1e-05 | 0.000203 ± 2.1e-05
26 | G38C C50U C61G | < 1e-05 | – | – | – | < 1e-05 | – | –
27 | G40A C70U | 0.000518 ± 0.0001 | – | 0.165 ± 0.058 | 0.000102 ± 1.8e-05 | – | 0.000417 ± 0.00011 | 0.000752 ± 0.00019
28 | G38C C67A | < 1e-05 | < 1e-05 | – | < 1e-05 | – | – | –
29 | G37A U47G U55G | 0.000459 ± 0.00013 | – | – | – | 0.000101 ± 1.6e-05 | 0.000183 ± 2.9e-05 | 0.000412 ± 6.3e-05
30 | A39U U46G | 0.00673 ± 0.0011 | 0.000227 ± 6.1e-05 | 4.4 ± 0.92 | 5.61e-05 ± 1.4e-05 | 0.000968 ± 0.00018 | 0.0023 ± 0.00049 | 0.00476 ± 0.0014
31 | A39U C71A | 0.00326 ± 0.00043 | 0.000353 ± 6.3e-05 | 1.88 ± 0.37 | 6.47e-05 ± 9.1e-06 | 0.000728 ± 0.00015 | 0.00175 ± 0.00039 | 0.0028 ± 0.00031
32 | A39U C71U | 0.0168 ± 0.0026 | 0.00196 ± 0.00029 | 1.03 ± 0.23 | 0.000702 ± 7.4e-05 | 0.00657 ± 0.00085 | 0.0105 ± 0.0014 | 0.0183 ± 0.0026
33 | A39C U46A | 0.000341 ± 6.3e-05 | – | 2.88 ± 0.98 | – | 5.57e-05 ± 1e-05 | 0.000209 ± 3.4e-05 | 0.000249 ± 3.6e-05
34 | A39C U46G | 0.000897 ± 0.00012 | 6.87e-05 ± 9.7e-06 | 2 ± 0.42 | – | 0.000224 ± 2e-05 | 0.00042 ± 6.2e-05 | 0.000829 ± 0.0001

Source: the supplement of paper PMC7125110
